# Experimental data as given in US20180244758A1 (MAPP BIOPHARMACEUTICAL, published 2018).
# B1: mAb PE-87 (antibody, V domains shown)
# VH: QVQLVQSGVTLVQPGGSLRVSCAASGFTFSSYAMSWVRQAPGKGLEWVSAISGLGGSTYYADSVKGRFTISRDNSKNTLYLQMNSLRAEDTAVYYCAKDHRVWAAGYHFDYWGQGALVTVSS
# VL: DIVLTQSPSTLSASVGDRVTITCRASQSISSWLAWYQQKPGEAPKLLISDASSLESGVPSRFSGSGSGTEFTLTISSLQPDDFATYYCQQYYSSPTFGGGTKVEIK
# Key:
# Test in all cases: cell-based or functional assay
# [1] = biological target: T1, SUDV GP on rVSV particles (Sudan virus (SUDV), UniProt Q66814 33-676)
# T1 sequence: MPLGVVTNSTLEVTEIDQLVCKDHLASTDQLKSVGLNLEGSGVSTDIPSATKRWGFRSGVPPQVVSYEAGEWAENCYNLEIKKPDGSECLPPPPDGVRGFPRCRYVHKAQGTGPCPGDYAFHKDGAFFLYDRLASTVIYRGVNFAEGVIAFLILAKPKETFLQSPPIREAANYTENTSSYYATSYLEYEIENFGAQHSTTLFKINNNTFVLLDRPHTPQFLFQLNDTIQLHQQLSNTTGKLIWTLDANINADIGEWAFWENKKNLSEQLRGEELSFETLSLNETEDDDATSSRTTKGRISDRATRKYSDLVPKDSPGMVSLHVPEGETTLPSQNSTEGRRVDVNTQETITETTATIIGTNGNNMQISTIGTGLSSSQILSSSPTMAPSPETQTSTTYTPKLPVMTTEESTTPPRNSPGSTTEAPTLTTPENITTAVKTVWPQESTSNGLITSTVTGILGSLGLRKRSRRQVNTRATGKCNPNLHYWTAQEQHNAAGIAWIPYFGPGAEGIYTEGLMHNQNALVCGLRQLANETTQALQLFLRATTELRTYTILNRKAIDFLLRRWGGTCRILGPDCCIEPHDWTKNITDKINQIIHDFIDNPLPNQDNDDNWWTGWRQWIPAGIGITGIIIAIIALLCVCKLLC
# [2] = biological target: BDBV GP on rVSV particles (Bundibugyo virus (BDBV))
# [3] = biological target: T2, RESTV GP on rVSV particles (Reston virus (RESTV), UniProt Q66799 34-677)
# T2 sequence: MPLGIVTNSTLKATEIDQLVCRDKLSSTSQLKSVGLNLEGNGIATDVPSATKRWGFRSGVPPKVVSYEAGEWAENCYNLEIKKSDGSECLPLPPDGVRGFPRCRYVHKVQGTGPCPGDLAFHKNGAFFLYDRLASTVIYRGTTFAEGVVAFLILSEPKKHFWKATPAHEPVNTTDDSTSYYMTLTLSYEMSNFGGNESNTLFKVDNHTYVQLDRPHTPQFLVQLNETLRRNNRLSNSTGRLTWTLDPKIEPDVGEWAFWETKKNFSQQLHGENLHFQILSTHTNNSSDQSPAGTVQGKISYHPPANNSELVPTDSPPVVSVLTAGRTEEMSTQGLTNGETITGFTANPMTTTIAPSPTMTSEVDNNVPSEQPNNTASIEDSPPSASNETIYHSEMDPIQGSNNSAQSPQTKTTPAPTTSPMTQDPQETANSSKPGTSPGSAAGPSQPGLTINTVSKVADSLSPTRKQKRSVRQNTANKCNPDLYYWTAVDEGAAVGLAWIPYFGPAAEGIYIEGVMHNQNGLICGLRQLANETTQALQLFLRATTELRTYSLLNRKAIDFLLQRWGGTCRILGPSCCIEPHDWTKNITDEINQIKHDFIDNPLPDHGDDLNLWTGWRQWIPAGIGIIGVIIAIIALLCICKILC
binder,measurement,setting,value
B1,"IC50 (nM), neutralization of rVSV-GP",[1],0.8 nM
same,"IC50 (nM), neutralization of rVSV-GP",[2],0.4 nM
same,"IC50 (nM), neutralization of rVSV-GP",[3],0.1 nM
